The target of one data set is DrdA (aldolase) (Bacillus thuringiensis, UniProt P0DTQ0). Conditions: tag-free protein, Mn2+ site, co-crystallised with 20 equivalents DHAP, pH 7.5.
For data set [1], the target named is B. thuringiensis 5-deoxyribose disposal isomerase DrdI, His6-tagged (Bacillus thuringiensis HD73-20 (BGSC 4D22)). The experiment in a line: SEC; native molecular mass estimated on a Superdex 200 column, eluted with 50 mM HEPES-KOH, 50 mM KCl, pH 7.5, 10% glycerol.
The next data set concerns the target T1, DEP1 (AtDEP1) (Arabidopsis thaliana, UniProt Q9FN41).
T1 construct: gene At5g53850; C-terminal His6-tag, from cDNA clone, expressed in E. coli BL21 CodonPlus (DE3)-RIPL; class II aldolase fused to HAD phosphatase domain
T1 sequence (Q9FN41 2-507): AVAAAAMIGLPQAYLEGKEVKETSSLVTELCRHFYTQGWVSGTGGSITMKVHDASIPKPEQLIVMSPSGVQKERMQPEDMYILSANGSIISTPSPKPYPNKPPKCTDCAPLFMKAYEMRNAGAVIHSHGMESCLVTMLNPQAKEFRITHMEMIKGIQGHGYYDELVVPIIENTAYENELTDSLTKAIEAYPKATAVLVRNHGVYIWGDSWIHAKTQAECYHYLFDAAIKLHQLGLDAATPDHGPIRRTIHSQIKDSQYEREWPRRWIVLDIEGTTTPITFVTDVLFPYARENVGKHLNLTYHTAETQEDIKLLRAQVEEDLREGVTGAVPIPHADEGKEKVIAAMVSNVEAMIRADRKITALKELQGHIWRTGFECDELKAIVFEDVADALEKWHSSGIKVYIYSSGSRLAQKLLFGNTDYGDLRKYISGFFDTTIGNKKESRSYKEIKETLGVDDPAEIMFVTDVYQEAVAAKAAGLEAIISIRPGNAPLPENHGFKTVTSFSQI
Nature of the data set: coupled glycerol-3-phosphate dehydrogenase NADH assay. It counts as biochemical. The following applies: aldol cleavage, 500 µM dRu1P, pH 8.2, 21 °C.

Substrate in data set [2]: C[C@H]1O[C@H](OP(=O)(O)O)[C@H](O)[C@@H]1O
The experiment in a line: coupled DrdA/glycerol-3-phosphate dehydrogenase NADH assay. In kind it is biochemical, Bacillus thuringiensis. The following applies: pH 8.0, 21 °C. The source says: coupled DrdA/glycerol-3-phosphate dehydrogenase NADH assay on DrdI (isomerase)

Substrate in data set [3]: Nc1ncnc2c1ncn2[C@@H]1O[C@H](COP(=O)(O)OP(=O)(O)OP(=O)(O)O)[C@@H](O)[C@H]1O
Nature of the data set: coupled pyruvate kinase/lactate dehydrogenase NADH assay. It counts as biochemical, Bacillus thuringiensis. The following applies: co-substrate 5-deoxyribose (500 µM), Mg2+, pH 8.0, 21 °C. The source says: coupled pyruvate kinase/lactate dehydrogenase NADH assay on DrdK (kinase)

Data set [4] concerns the molecule itself. The experiment in a line: SEC; native molecular mass estimated on a Superdex 200 column, eluted with 50 mM HEPES-KOH, 50 mM KCl, pH 7.5, 10% glycerol.
Data set [5] deals with the molecule itself. Nature of the data set: crystal structure; X-ray, 1.55 Å, space group P42(1)2, one monomer per asymmetric unit; crystals from 200 mM NaCl, 28% PEG-3350, 100 mM HEPES-KOH pH 7.5, 20 °C.

On to `O=C(CO)COP(=O)(O)O` [dihydroxyacetone phosphate], for which, on DrdA (aldolase), the “X-ray crystal structure of complex” value is listed as “we solved the co-complex structure of DHAP bound to DrdA”.

On to “B. thuringiensis 5-deoxyribose disposal isomerase DrdI, His6-tagged (enzyme)”, for which the stoichiometry N (as a rule, a count of units in the complex or per binding partner) in data set [1] is 2.

Consider `C[C@@H](O)[C@@H](O)C(=O)COP(=O)(O)O` [5-deoxyribulose 1-phosphate], for which the “coupled glycerol-3-phosphate dehydrogenase NADH assay” value at DEP1 (AtDEP1) is listed as “Recombinant DEP1 showed aldolase activity towards 5-deoxyribulose-1-phosphate”.

B1: DrdI (isomerase) (Bacillus thuringiensis serovar kurstaki str. HD73) (protein)
chain: MMEEQLIPIQWKDDALVLLDQTLLPNEIVYESFKTAESVWDAIQVMKVRGAPVIGVSAAYGVYLGVKEFAESTEEGFMDEVRKVCTYLATSRPTAVNLFWALERMESVAADNIHLSISQLKDRLLEEAKEIHREDEEINRQIGEHALTLFHDGMGVLTHCNAGALATTKYGTATAPMYLAKEKGWDLKIFSDETRPRLQGSTLTALELQRAGIDVTVITDNMAAMVMSQGKIDAVIVGCDRVAANGDIANKIGTLGVSILAKYYNIPFYVAAPTPTIDLKTPTGKEIPIEERDASEVINRFGQYSAPKESKVYNPAFDVTPHENVTAIITEKGIVKAPFTENLKKIFQ
notes: full length, N-terminal His6-tag with short linker, expressed in E. coli BL21 CodonPlus (DE3)-RIPL; dimer
In the case of B1, in data set [2], the Km (in general, the concentration of substrate that gives half-maximal velocity) is on record as 22 ± 7 × 10^3 µM; the kcat (in general, the number of substrate molecules converted per active site and unit of time at saturation) amounted to 3.5 ± 0.7 s⁻¹; the kcat/Km – broadly, the turnover number divided by the Michaelis constant – was 160 ± 60 M⁻¹ s⁻¹.

B2: B. thuringiensis 5-deoxyribose disposal kinase DrdK, His6-tagged (enzyme, UniProt P0DTQ2 1-409, looked up)
chain: MSKFTKYFLMEASDVIAYVKEKLSKFEHAKGLKCKEIGDGNLNYVFRVWDKKENMSVIVKQAGDTARISDEFKLSTNRIRIESDVLQLENELAPGLVPKVYLFDSVMNCCVMEDLSNHTILRTALINHQIFPQLADDLTTFMVNTLLLTSDVVMNHKEKKELVKNYINPELCEITEDLVYSEPFTNHNKRNELFPLNEGWIREHIYSDKELRMEVAKRKFSFMTNAQALLHGDLHTGSVFVRDDSTKVIDPEFAFYGPMGYDVGNVMANLMFAWVNADATMPPGAEKDTYMDWLQTTMVEVIDLFKKKFLDAWDIHVTEIMAKEEGFNEVYLQSVLEDTAAVTGLELIRRIVGLAKVKDITCIENEEARARAEQICLKVAKSFILRANQYRTGRSFVETLKEQSMHYAE
notes: Cloned into pET28b (XbaI/XhoI amplicon into NheI/XhoI); No step that removes the tag is described; also called 5-deoxyribose kinase; source: E. coli BL21 CodonPlus (DE3)-RIPL, purified (Ni-NTA)
On to B2, for which, in data set [3], the Km is 216 ± 63 µM, the turnover number (kcat) is 17.1 ± 2.5 s⁻¹ and the catalytic efficiency (kcat/Km) was 79000 ± 26000 M⁻¹ s⁻¹. For the same molecule, the “stoichiometry N” value in data set [4] was 2.

B3: B. thuringiensis aldolase DrdA, tag-free variant (enzyme)
chain: MLLQKEREEIVAYGKKMISSGLTKGTGGNISIFNREQGLVAISPSGLEYYETKPEDVVILNLDGEVIEGERKPSSELDMHLIYYRKREDINALVHTHSPYAKTIASLGWELPAVSYLIAFAGPNVRCAPYETFGTKQLADAAFEGMIDRRAVLLANHGLIAGANNIKMAFTVAEEIEFCAQIYYQTKSIGEPKLLPEDEMENLAKKFEGYGQQ
notes: also called tag-free version; His-tag-free protein; source: E. coli BL21(DE3), purified (ammonium sulfate precipitation, MonoQ anion exchange, Superdex 200 SEC)
Take B3: in data set [5], the “stoichiometry N” value came out at 4.

Values taken from paper PMC6079011, “Salvage of the 5-deoxyribose byproduct of radical SAM enzymes” (Nature Communications, 2018).
